The supplement of paper PMC9112550, “Optimization of the antimicrobial peptide Bac7 by deep mutational scanning” (BMC Biology, 2022)

These sequences were tested on Escherichia coli TOP10 (assay: shrunken log2 fold change of peptide-encoding DNA abundance (4.5 h post-induction vs induction); higher = less antimicrobial activity (less host growth inhibition)). Conditions: time post-induction: 4.5 h; library: site-saturation at positions 5, 18, 19, 20.
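Note: peptides expressed intracellularly from a pBAD plasmid library in pooled LB shake-flask culture, induced with 0.3% L-arabinose, DNA abundance read by NGS, three biological replicates, DESeq2 with apeglm shrinkage.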

Sequence	shrunken log2 fold change
RRIRPRPPRLPRPRPRPRSWPRP	0.533
RRIRTRPPRLPRPRPRPYSLPRP	-0.186
RRIRFRPPRLPRPRPRPTRCPRP	0.299
RRIRNRPPRLPRPRPRPYCNPRP	-0.672
RRIRIRPPRLPRPRPRPTALPRP	0.0424
RRIRTRPPRLPRPRPRPQFWPRP	-0.00273
RRIRPRPPRLPRPRPRPNGQPRP	0.097
RRIRIRPPRLPRPRPRPDAWPRP	0.32
RRIRSRPPRLPRPRPRPHNRPRP	0.0124
RRIRSRPPRLPRPRPRPLCWPRP	0.131
RRIRARPPRLPRPRPRPNHAPRP	0.209
RRIRERPPRLPRPRPRPDSYPRP	-0.00865
RRIRERPPRLPRPRPRPDLWPRP	-0.141
RRIRMRPPRLPRPRPRPRSRPRP	0.997
RRIRWRPPRLPRPRPRPMSKPRP	-0.133
RRIRERPPRLPRPRPRPRKGPRP	0.0234
RRIRCRPPRLPRPRPRPVVYPRP	-0.0321
RRIRERPPRLPRPRPRPRHQPRP	-0.164
RRIRNRPPRLPRPRPRPISLPRP	-0.0292
RRIRLRPPRLPRPRPRPHAWPRP	0.62
RRIRPRPPRLPRPRPRPHARPRP	0.111
RRIRNRPPRLPRPRPRPKDCPRP	-0.0418

Sequence	shrunken log2 fold change
RRIRHRPPRLPRPRPRPGCVPRP	0.000164
RRIRVRPPRLPRPRPRPIWDPRP	0.0206
RRIRKRPPRLPRPRPRPIEEPRP	0.566
RRIRKRPPRLPRPRPRPVAMPRP	1.67
RRIRHRPPRLPRPRPRPLLGPRP	-0.107
RRIRFRPPRLPRPRPRPEWTPRP	0.155
RRIRCRPPRLPRPRPRPCCDPRP	-0.27
RRIRRRPPRLPRPRPRPDIDPRP	0.0367
RRIRERPPRLPRPRPRPTKHPRP	-0.347
RRIRSRPPRLPRPRPRPLPPPRP	0.518
RRIRARPPRLPRPRPRPVNSPRP	-0.0786
RRIRSRPPRLPRPRPRPENWPRP	-0.0386
RRIRNRPPRLPRPRPRPFFIPRP	-0.586
RRIRVRPPRLPRPRPRPYFKPRP	-0.49
RRIRDRPPRLPRPRPRPLYKPRP	0.00521
RRIRVRPPRLPRPRPRPSGRPRP	0.0291
RRIRQRPPRLPRPRPRPACSPRP	0.125
RRIRLRPPRLPRPRPRPVVRPRP	0.148
RRIRWRPPRLPRPRPRPWSAPRP	0.228
RRIRVRPPRLPRPRPRPYPNPRP	0.0262
RRIRMRPPRLPRPRPRPNKCPRP	0.216
RRIRHRPPRLPRPRPRPVRLPRP	0.0217

Sequence	shrunken log2 fold change
RRIRQRPPRLPRPRPRPLDFPRP	-0.0491
RRIRARPPRLPRPRPRPWIAPRP	-0.0071
RRIRTRPPRLPRPRPRPRNVPRP	-0.128
RRIRLRPPRLPRPRPRPADYPRP	-0.0944
RRIRDRPPRLPRPRPRPVHGPRP	1.43
RRIRYRPPRLPRPRPRPATNPRP	-0.387
RRIRERPPRLPRPRPRPVTFPRP	-0.019
RRIRRRPPRLPRPRPRPWFKPRP	-0.139
RRIRDRPPRLPRPRPRPFISPRP	-0.0503
RRIRMRPPRLPRPRPRPHLCPRP	-0.117
RRIRNRPPRLPRPRPRPRDNPRP	0.104
RRIRIRPPRLPRPRPRPFARPRP	-0.0891
RRIRIRPPRLPRPRPRPKEDPRP	-0.327
RRIRVRPPRLPRPRPRPRTPPRP	0.555
RRIRGRPPRLPRPRPRPQNAPRP	0.00487
RRIRLRPPRLPRPRPRPNGGPRP	-0.01
RRIRMRPPRLPRPRPRPIKCPRP	-0.0724
RRIRDRPPRLPRPRPRPSQLPRP	-0.633
RRIRTRPPRLPRPRPRPHSCPRP	-0.0159
RRIRERPPRLPRPRPRPRHMPRP	-0.0855
RRIRLRPPRLPRPRPRPGTRPRP	0.309
RRIRHRPPRLPRPRPRPESTPRP	0.0536

Sequence	shrunken log2 fold change
RRIRLRPPRLPRPRPRPKKRPRP	0.277
RRIRMRPPRLPRPRPRPLNHPRP	-0.0957
RRIRDRPPRLPRPRPRPIISPRP	0.0102
RRIRFRPPRLPRPRPRPDIAPRP	0.101
RRIRWRPPRLPRPRPRPLASPRP	0.26
RRIRFRPPRLPRPRPRPNYTPRP	-1.07
RRIRFRPPRLPRPRPRPRWNPRP	0.00853
RRIRFRPPRLPRPRPRPKQKPRP	-0.00156
RRIRCRPPRLPRPRPRPNFGPRP	-0.0314
RRIRSRPPRLPRPRPRPFYSPRP	-0.131
RRIRQRPPRLPRPRPRPEDVPRP	-0.0612
RRIRARPPRLPRPRPRPQARPRP	0.233
RRIRGRPPRLPRPRPRPQTGPRP	0.162
RRIRVRPPRLPRPRPRPDVGPRP	-0.13
RRIRKRPPRLPRPRPRPEPKPRP	0.191
RRIRRRPPRLPRPRPRPPEKPRP	1.6
RRIRMRPPRLPRPRPRPCNPPRP	-0.0764
RRIRNRPPRLPRPRPRPFGKPRP	-0.0788
RRIRNRPPRLPRPRPRPNTWPRP	-0.382
RRIRRRPPRLPRPRPRPSDTPRP	-0.0536
RRIRHRPPRLPRPRPRPEFDPRP	0.12
RRIRERPPRLPRPRPRPRMMPRP	-0.011

Sequence	shrunken log2 fold change
RRIRIRPPRLPRPRPRPFWRPRP	-0.00848
RRIRFRPPRLPRPRPRPHSPPRP	-0.389
RRIRTRPPRLPRPRPRPFAEPRP	0.0116
RRIRARPPRLPRPRPRPHNWPRP	0.129
RRIRFRPPRLPRPRPRPHEEPRP	0.00592
RRIRRRPPRLPRPRPRPLNIPRP	-0.651
RRIRDRPPRLPRPRPRPGMWPRP	0.634
RRIRSRPPRLPRPRPRPMQWPRP	-0.145
RRIRRRPPRLPRPRPRPMCEPRP	0.516
RRIRSRPPRLPRPRPRPEGQPRP	0.193
RRIRRRPPRLPRPRPRPLVPPRP	0.175
RRIRERPPRLPRPRPRPCTEPRP	-0.196
RRIRRRPPRLPRPRPRPRHNPRP	-0.14
RRIRPRPPRLPRPRPRPPWHPRP	0.196
RRIRMRPPRLPRPRPRPPNWPRP	1.03
RRIRYRPPRLPRPRPRPFMHPRP	-0.661
RRIRMRPPRLPRPRPRPMGHPRP	-0.032
RRIRVRPPRLPRPRPRPYCPPRP	-0.462
RRIRKRPPRLPRPRPRPVEKPRP	-0.0124
RRIRSRPPRLPRPRPRPTWLPRP	0.455
RRIRWRPPRLPRPRPRPRLEPRP	0.778
